The target in one series is RM6 (UniProt P03051). Description: SAXS; 10 °C, 1–12 mg/mL; molecular mass from I(0) of the Guinier plot against BSA; rRop from the refolding protocol.
The target of series [1] is rRM6. Description: SEC; Sephacryl S-200 high-resolution column, 20 °C, 0.5 mL/min, after Ni-NTA; rRop from the refolding protocol gives an asymmetric peak.
Series [2] deals with rRM6. Description: SAXS; 10 °C, 1–12 mg/mL; molecular mass from I(0) of the Guinier plot against BSA; rRop from the refolding protocol.
In series [3] the target is rRM6. Description: SEC-MALS; 100 uL loaded (wtRop 3 mg/mL, rRop 5.5 mg/mL, rRM6 3.5 mg/mL) on Superdex 75 (wtRop, rRop) or Superdex 200 (rRM6); rRop from the non-refolding protocol. On the technique in general: In gel filtration, larger molecules generally elute earlier.
The target of the next series is rRop. The description is as above.
Series [4] concerns the molecule itself. Described as above.

Four molecules from article PMC7920257, “Probing Protein Folding with Sequence-Reversed α-Helical Bundles” (International Journal of Molecular Sciences, 2021) can be followed below.

For the molecule “RM6 (from UniProt P03051 1-63) (natural protein)”, the stoichiometry N (in general, the number of molecules, sites or subunits per partner or assembly) with RM6 was 4.

Take rRM6: the stoichiometry N in the series with rRM6 [1], with rRM6 [2] and in the series with rRM6 [3] was 4 throughout.

In turn, rRop had a stoichiometry N with rRop of 2.

B1: Rop (natural protein)
chain: MTKQEKTALNMARFIRSQTLTLLEKLNELDADEQADICESLHDHADELYRSCLARFGDDGENL
notes: homodimeric 4-alpha-helical bundle; also called wtRop; wild-type Rop
As for B1, the “stoichiometry N” value in series [4] came out at 2.
